Laboratory results as given in patent publication US9327008B2, “Cell-permeant peptide-based inhibitor of kinases” (Purdue Research Foundation, priority 2008, dated 2016).

How the values were obtained:
Format in all cases: biochemical
[1] = molecular target: T1, Lck (Homo sapiens, UniProt P06239); test: Millipore radiometric kinase activity assay, Lck (h)
T1 construct: purchased Millipore (assay service)
Text: A commercial radiometric assay service (Millipore, Billerica, Mass.) was used to test the specificity and potency of peptides containing a coupled transduction domain and therapeutic domain, hereinafter “complete peptides”). In these assays, if the kinase is not inhibited by an inhibitor peptide, a positively charged substrate is phosphorylated with a radiolabeled phosphate group from an ATP. […] The reaction is initiated by the addition of the MgATP mix. […] IC50 values for inhibitor peptides were determined using Millipore's IC50Profiler Express service. The IC50 value was estimated from a 10-point curve of one-half log dilutions. […] In both assays, compounds were supplied in dimethylsulfoxide (DMSO). Every kinase activity measurement was conducted in duplicate. Therapeutic inhibitor peptides were assayed for activity against human kinases related to MK2, cell viability, or human disease. […] Error is reported as the standard deviation between 2 samples, and “c” is rat AMPK whereas all other kinases used are human kinases.

[2] = molecular target: T2, PKCβI (Homo sapiens, UniProt P05771); test: Millipore radiometric kinase activity assay, PKCβI (h)
T2 construct: purchased Millipore (radiometric assay service)
Description: (§1) A commercial radiometric assay service (Millipore, Billerica, Mass.) was used to test the specificity and potency of peptides containing a coupled transduction domain and therapeutic domain, hereinafter “complete peptides”). In these assays, if the kinase is not inhibited by an inhibitor peptide, a positively charged substrate is phosphorylated with a radiolabeled phosphate group from an ATP.
(§2) In a final reaction volume of 25 μL, PKCβI (h) (5-10 mU) is incubated with 20 mM HEPES pH 7.4, 0.03% Triton X-100, 0.1 mM CaCl2, 0.1 mg/mL phosphatidylserine, 10 μg/mL diacylglycerol, 0.1 mg/mL histone H1, 10 mM MgAcetate and [γ-^33P-ATP] (specific activity approx. 500 cpm/pmol, concentration as required). The reaction is initiated by the addition of the MgATP mix. After incubation for 40 minutes at room temperature, the reaction is stopped by the addition of 5 μL of a 3% phosphoric acid solution. 10 μL of the reaction is then spotted onto a P30 filtermat and washed three times for 5 minutes in 75 mM phosphoric acid and once in methanol prior to drying and scintillation counting.
(§3) IC50 values for inhibitor peptides were determined using Millipore's IC50Profiler Express service. The IC50 value was estimated from a 10-point curve of one-half log dilutions. For peptides tested for specificity, the concentration of the peptides that inhibited approximately 95% of MK2 activity was chosen to profile against a battery of kinases related to MK2, cell viability, or human disease from MilliporeKinaseProfiler service. In both assays, compounds were supplied in dimethylsulfoxide (DMSO). Every kinase activity measurement was conducted in duplicate.
(§4) Therapeutic inhibitor peptides were assayed for activity against human kinases related to MK2, cell viability, or human disease. The assays were performed using concentrations of therapeutic inhibitor peptides that yielded 2% to 8% of normal MK2 activity. Error is reported as the standard deviation between 2 samples, and “c” is rat AMPK whereas all other kinases used are human kinases.

[3] = molecular target: T3, CK2 (Homo sapiens, UniProt P68400); test: Millipore radiometric kinase activity assay, CK2 (h)
T3 construct: purchased Millipore (assay service)
Description: as §1
as §2, with “CK2” for “PKCβI”, “7.6, 0.15 M NaCl, 0.1 mM EDTA, 5 mM DTT, 0.1%” for “7.4, 0.03%”, “165 μM […] [SEQ ID NO: 55],” for “0.1 mM CaCl2, 0.1 mg/mL phosphatidylserine, 10 μg/mL diacylglycerol, 0.1 mg/mL histone H1,”
as §3, §4

[4] = molecular target: T4, TrkA (Homo sapiens, UniProt P04629); test: Millipore radiometric kinase activity assay, TrkA (h)
T4 construct: purchased Millipore (radiometric assay service)
Description: as §1
as §2, with “TrkA” for “PKCβI”, “8” for “20”, “MOPS” for “HEPES”, “7.0, 0.2” for “7.4, 0.03% Triton X-100, 0.1”, “EDTA, 250 μM […] [SEQ ID NO: 56],” for “CaCl2, 0.1 mg/mL phosphatidylserine, 10 μg/mL diacylglycerol, 0.1 mg/mL histone H1,”
as §3, §4

[5] = molecular target: T5, PKG1α (Homo sapiens, UniProt Q13976); test: Millipore radiometric kinase activity assay, PKG1α (h); details: peptide 100 μM
T5 construct: purchased Millipore (radiometric assay service)
T5 sequence (Q13976 1-671): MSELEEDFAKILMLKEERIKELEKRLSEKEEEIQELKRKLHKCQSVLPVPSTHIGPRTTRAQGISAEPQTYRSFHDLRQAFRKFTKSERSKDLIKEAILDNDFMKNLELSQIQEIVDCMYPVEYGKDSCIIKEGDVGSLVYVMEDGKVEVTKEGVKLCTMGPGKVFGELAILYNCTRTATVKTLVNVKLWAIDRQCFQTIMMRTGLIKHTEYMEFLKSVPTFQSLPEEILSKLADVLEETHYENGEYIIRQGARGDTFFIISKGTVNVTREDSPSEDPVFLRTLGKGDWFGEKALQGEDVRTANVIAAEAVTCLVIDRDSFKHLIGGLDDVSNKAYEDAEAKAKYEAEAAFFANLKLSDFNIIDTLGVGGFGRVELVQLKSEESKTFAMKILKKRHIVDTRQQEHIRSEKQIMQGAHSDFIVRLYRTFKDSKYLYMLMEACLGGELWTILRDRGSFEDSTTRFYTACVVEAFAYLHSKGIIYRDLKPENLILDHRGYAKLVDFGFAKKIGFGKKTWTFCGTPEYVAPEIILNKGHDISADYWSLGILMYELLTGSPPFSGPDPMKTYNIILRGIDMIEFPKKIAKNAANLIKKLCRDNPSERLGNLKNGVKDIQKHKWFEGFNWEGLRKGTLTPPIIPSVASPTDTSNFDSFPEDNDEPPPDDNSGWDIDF
Description: as §1
as §2, with “PKG1α” for “PKCβI”, “8” for “20”, “MOPS” for “HEPES”, “7.0, 0.2” for “7.4, 0.03% Triton X-100, 0.1”, “EDTA,” for “CaCl2, 0.1 mg/mL phosphatidylserine,”, “μM cGMP, 200 μM […] [SEQ ID NO: 62],” for “μg/mL diacylglycerol, 0.1 mg/mL histone H1,”
IC50 values for inhibitor peptides were determined using Millipore's IC50Profiler Express service. The IC50 value was estimated from a 10-point curve of one-half log dilutions. […]

T4 sequence (P04629 33-796): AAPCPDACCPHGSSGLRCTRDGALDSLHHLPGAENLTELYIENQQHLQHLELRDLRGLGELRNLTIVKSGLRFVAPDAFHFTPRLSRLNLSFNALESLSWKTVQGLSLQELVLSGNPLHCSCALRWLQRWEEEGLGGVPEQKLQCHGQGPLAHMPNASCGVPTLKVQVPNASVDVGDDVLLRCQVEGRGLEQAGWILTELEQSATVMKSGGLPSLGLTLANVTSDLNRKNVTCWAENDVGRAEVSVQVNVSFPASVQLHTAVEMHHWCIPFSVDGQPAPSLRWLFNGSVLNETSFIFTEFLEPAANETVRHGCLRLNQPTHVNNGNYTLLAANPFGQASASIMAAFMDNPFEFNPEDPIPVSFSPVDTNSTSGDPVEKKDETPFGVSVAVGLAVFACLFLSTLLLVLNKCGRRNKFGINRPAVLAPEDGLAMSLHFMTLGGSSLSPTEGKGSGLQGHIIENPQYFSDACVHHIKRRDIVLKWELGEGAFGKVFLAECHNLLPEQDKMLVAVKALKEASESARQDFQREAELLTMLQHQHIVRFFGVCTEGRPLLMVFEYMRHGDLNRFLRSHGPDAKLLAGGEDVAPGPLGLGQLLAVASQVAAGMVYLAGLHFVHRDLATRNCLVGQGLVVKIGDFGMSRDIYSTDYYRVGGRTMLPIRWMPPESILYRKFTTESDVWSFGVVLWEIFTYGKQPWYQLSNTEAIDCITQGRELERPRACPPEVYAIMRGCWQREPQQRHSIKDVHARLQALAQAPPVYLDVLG
T1 sequence (P06239 whole entry): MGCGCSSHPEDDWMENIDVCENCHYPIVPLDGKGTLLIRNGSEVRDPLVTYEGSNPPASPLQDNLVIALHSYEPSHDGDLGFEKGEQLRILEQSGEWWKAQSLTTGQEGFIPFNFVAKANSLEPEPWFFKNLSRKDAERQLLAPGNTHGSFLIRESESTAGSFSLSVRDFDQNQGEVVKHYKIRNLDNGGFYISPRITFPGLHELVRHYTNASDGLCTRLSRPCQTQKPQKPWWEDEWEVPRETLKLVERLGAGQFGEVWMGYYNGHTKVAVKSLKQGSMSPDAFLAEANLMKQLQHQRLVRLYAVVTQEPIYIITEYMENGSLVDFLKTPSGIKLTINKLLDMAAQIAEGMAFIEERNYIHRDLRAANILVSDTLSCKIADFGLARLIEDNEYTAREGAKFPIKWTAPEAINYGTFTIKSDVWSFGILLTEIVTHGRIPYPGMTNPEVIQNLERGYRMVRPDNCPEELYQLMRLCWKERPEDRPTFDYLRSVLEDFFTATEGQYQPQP
T2 sequence (P05771 whole entry): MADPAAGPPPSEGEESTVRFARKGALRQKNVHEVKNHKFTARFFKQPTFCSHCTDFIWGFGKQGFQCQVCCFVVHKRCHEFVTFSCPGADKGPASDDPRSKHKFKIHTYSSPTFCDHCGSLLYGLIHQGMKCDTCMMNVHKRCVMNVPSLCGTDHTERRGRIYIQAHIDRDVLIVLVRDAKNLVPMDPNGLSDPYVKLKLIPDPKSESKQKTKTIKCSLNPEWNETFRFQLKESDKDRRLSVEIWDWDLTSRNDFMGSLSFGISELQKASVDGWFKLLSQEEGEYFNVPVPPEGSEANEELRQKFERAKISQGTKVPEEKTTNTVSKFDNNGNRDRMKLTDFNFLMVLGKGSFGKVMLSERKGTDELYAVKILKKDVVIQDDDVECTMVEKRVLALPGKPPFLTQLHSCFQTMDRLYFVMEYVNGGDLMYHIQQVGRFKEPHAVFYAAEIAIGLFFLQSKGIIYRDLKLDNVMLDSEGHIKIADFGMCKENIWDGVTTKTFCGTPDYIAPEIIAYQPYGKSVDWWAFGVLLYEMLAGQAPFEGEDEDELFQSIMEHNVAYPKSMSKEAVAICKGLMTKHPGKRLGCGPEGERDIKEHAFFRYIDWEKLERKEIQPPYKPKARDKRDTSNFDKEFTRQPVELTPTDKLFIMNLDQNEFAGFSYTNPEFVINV
T3 sequence (P68400 whole entry): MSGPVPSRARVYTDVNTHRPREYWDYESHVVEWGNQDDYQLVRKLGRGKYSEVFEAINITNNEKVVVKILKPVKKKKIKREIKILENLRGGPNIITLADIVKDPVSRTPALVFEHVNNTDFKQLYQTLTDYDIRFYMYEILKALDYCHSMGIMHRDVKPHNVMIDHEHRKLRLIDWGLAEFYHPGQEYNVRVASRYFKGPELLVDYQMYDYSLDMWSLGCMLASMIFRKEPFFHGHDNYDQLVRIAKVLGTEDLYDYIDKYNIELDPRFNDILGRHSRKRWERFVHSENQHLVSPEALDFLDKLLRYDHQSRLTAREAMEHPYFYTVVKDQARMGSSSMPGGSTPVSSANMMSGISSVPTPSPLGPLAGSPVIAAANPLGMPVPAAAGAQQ
T3 sequence (P67870 whole entry partner): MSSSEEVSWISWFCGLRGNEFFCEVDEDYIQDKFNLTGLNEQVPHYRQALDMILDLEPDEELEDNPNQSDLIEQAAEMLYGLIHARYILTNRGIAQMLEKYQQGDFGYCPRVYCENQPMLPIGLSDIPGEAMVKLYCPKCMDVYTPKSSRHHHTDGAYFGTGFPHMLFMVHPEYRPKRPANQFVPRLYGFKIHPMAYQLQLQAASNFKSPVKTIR

Sequence: WLRRIKAWLRRIKALNRQLGVAA
- Lck Kinase Activity (%) (+SD %) ([1]; peptide 30 μM): 130 (1) %
- Lck Kinase Activity (%) (+SD %) ([1]; peptide 100 μM): 493 (7) %
- PKCβ1 Kinase Activity (%) (+SD %) ([2]; peptide 30 μM): 8 (4) %
- PKCβ1 Kinase Activity (%) (+SD %) ([2]; peptide 100 μM): 73 (0) %
- CK2 Kinase Activity (%) (+SD %) ([3]; peptide 30 μM): 114 (4) %
- CK2 Kinase Activity (%) (+SD %) ([3]; peptide 100 μM): 80 (14) %
- TrkA Kinase Activity (%) (+SD %) ([4]; peptide 30 μM): 6 (1) %
- TrkA Kinase Activity (%) (+SD %) ([4]; peptide 100 μM): 17 (2) %
- PKG1α Kinase Activity (%) (+SD %) [5]: 12 (2) %

Sequence: KAFAKLAARLYRKALARQLGVAA
- Lck Kinase Activity (%) (+SD %) ([1]; peptide 100 μM): 847 (29) %
- PKCβ1 Kinase Activity (%) (+SD %) ([2]; peptide 100 μM): 23 (3) %
- CK2 Kinase Activity (%) (+SD %) ([3]; peptide 100 μM): 79 (12) %
- TrkA Kinase Activity (%) (+SD %) ([4]; peptide 100 μM): 16 (2) %
- PKG1α Kinase Activity (%) (+SD %) [5]: 25 (2) %
